# Data reported in PMC12218292 (Nature Communications, 2025).
# T1: Rad51 (S. cerevisiae), P25454
# T1 chain: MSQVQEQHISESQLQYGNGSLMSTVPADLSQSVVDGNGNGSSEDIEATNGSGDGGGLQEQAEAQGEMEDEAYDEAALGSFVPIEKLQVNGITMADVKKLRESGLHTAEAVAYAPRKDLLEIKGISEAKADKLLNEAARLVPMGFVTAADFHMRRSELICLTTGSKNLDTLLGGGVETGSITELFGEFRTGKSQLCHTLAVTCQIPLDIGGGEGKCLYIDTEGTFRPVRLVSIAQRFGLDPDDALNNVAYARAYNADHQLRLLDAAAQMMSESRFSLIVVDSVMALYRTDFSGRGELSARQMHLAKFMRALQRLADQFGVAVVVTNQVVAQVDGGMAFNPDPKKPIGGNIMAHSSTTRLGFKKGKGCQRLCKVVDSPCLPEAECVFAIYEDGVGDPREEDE
# Target: Rad51 (in yeast cells) (UniProt P25454)
# Test: co-immunoprecipitation (co-IP)
# Details: read off a plot
# Sequence of Rad52-FLAG (from UniProt P06778) A319 (P06778 whole entry, change not shown): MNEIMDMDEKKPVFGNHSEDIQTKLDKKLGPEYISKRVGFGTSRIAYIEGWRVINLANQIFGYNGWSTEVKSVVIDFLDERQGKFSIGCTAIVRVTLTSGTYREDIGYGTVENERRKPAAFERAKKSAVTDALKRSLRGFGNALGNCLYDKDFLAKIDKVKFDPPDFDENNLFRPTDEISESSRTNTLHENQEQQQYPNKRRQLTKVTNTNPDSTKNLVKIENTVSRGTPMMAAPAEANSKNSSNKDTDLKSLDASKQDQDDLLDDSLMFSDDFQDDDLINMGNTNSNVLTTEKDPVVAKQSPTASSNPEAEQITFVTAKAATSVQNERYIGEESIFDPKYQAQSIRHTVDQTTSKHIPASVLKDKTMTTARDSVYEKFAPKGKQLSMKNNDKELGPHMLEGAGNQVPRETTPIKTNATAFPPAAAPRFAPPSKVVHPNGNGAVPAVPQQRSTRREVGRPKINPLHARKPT
# Sequence of Rad52-FLAG (from UniProt P06778) V358E (P06778 whole entry, stated change not applied): as the sequence (P06778 whole entry, change not shown) above
# Sequence of Rad52-FLAG (from UniProt P06778) S355 (P06778 whole entry, change not shown): as above
# Sequence of Rad52-FLAG (from UniProt P06778) L363 (P06778 whole entry, change not shown): as above
# Sequence of Rad52-FLAG (from UniProt P06778) S374 (P06778 whole entry, change not shown): as above
# Sequence of Rad52-FLAG (from UniProt P06778) T318 (P06778 whole entry, change not shown): as above
# Sequence of Rad52-FLAG (from UniProt P06778) V350 (P06778 whole entry, change not shown): as above
# Sequence of Rad52-FLAG (from UniProt P06778) V325 (P06778 whole entry, change not shown): as above
# Sequence of Rad52-FLAG (from UniProt P06778) P381 (P06778 whole entry, change not shown): as above
# Sequence of Rad52-FLAG (from UniProt P06778) V317 (P06778 whole entry, change not shown): as above
row,Molecule,other: interaction loss by coIP (%)
1,Rad52-FLAG (from UniProt P06778) V325,89%
2,Rad52-FLAG (from UniProt P06778) V358E,100%
3,Rad52-FLAG (from UniProt P06778) S374,33%
4,Rad52-FLAG (from UniProt P06778) P381,79%
5,Rad52-FLAG (from UniProt P06778) S355,100%
6,Rad52-FLAG (from UniProt P06778) A319,99%
7,Rad52-FLAG (from UniProt P06778) L363,27%
8,Rad52-FLAG (from UniProt P06778) T318,97%
9,Rad52-FLAG (from UniProt P06778) V317,80%
10,Rad52-FLAG (from UniProt P06778) V350,49%

# Target: T1, Rad51 (S. cerevisiae), P25454
# Test: SEC-SAXS; Rad51 + Rad52 (295–408) 1:1; SWING beamline in SEC mode, Superdex 5/150 GL column; peak deconvolution; molecular weight from SAXS
# Details: remark: other sources report otherwise
row,Molecule,stoichiometry N
1,"Rad51 (natural protein, S. cerevisiae, UniProt P25454 1-400, looked up, Oligomeric alone in solution; also called full-length unlabeled Rad51) MSQVQEQHISESQLQYGNGSLMSTVPADLSQSVVDGNGNGSSEDIEATNGSGDGGGLQEQAEAQGEMEDEAYDEAALGSFVPIEKLQVNGITMADVKKLRESGLHTAEAVAYAPRKDLLEIKGISEAKADKLLNEAARLVPMGFVTAADFHMRRSELICLTTGSKNLDTLLGGGVETGSITELFGEFRTGKSQLCHTLAVTCQIPLDIGGGEGKCLYIDTEGTFRPVRLVSIAQRFGLDPDDALNNVAYARAYNADHQLRLLDAAAQMMSESRFSLIVVDSVMALYRTDFSGRGELSARQMHLAKFMRALQRLADQFGVAVVVTNQVVAQVDGGMAFNPDPKKPIGGNIMAHSSTTRLGFKKGKGCQRLCKVVDSPCLPEAECVFAIYEDGVGDPREEDE",4

# Target: T2, Rad52 (295–408) (S. cerevisiae, UniProt P06778 295-408, uniform 15N labelling)
# T2 construct: numbered from the first AUG codon in RAD52 mRNA (protein of 471 residues); Cloned in pETM30; also called Rad52C-ter; Rad52-Cter; source: E. coli BL21(DE3), purified (GSH-sepharose, TEV cleavage, Ni Sepharose, PD10)
# Test: as above
# Details: both partners purified
# T2 sequence (P06778 295-408): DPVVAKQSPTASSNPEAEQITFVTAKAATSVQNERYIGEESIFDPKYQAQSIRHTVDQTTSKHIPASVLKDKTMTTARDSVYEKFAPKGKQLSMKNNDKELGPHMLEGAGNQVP
row,Molecule,stoichiometry N
1,"Rad51 (natural protein, S. cerevisiae, UniProt P25454 1-400, looked up, Oligomeric alone in solution; also called full-length unlabeled Rad51) MSQVQEQHISESQLQYGNGSLMSTVPADLSQSVVDGNGNGSSEDIEATNGSGDGGGLQEQAEAQGEMEDEAYDEAALGSFVPIEKLQVNGITMADVKKLRESGLHTAEAVAYAPRKDLLEIKGISEAKADKLLNEAARLVPMGFVTAADFHMRRSELICLTTGSKNLDTLLGGGVETGSITELFGEFRTGKSQLCHTLAVTCQIPLDIGGGEGKCLYIDTEGTFRPVRLVSIAQRFGLDPDDALNNVAYARAYNADHQLRLLDAAAQMMSESRFSLIVVDSVMALYRTDFSGRGELSARQMHLAKFMRALQRLADQFGVAVVVTNQVVAQVDGGMAFNPDPKKPIGGNIMAHSSTTRLGFKKGKGCQRLCKVVDSPCLPEAECVFAIYEDGVGDPREEDE",1
